Data as given in US20110059555, “BRANCHED AND MULTI-CHAIN NUCLEIC ACID SWITCHES FOR SENSING AND SCREENING” (Syracuse University, published 2011).

Tests used:
[1] = target: NCp7 (nucleocapsid protein, Zn2.NCp7(1-55)) (HIV-1) (UniProt P35962); conditions: virtually no change in Kd
[2] = target: NCp7 (nucleocapsid protein, Zn2.NCp7(1-55)) (HIV-1) (UniProt P35962); conditions: Trp assay; virtually identical Kd
[3] = target: T1, NCp7 (nucleocapsid protein, Zn2.NCp7(1-55)) (HIV-1, UniProt P35962 SEQ:1-55); assay: Trp assay; K2 similar to that of SL3 RNA; conditions: label: 5'-dabcyl, T-FAM at 17 of the all-DNA strand; tethered duplex with hairpins (O-form favoured)
T1 chain: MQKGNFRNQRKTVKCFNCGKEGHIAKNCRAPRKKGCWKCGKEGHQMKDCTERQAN

[4] = target: T1, NCp7 (nucleocapsid protein, …); assay: equilibration with NCp7 within a minute at 10 nM switch; conditions: label: 5'-dabcyl, T-FAM at 17 of the all-DNA strand; tethered duplex switch

Molecule SL3 C315-G has a binding signal (fold Kd vs SL3) [1] of 1.

With SL3 A315-U322 the binding signal (fold Kd vs SL3) [1] was 1.

For SL3 G316-C321, the binding signal (fold Kd vs SL3) [1] was 1.

SL3 16mer showed a binding signal (fold Kd vs SL3 20mer) [2] of 1.

B1: M2 tethered switch (mixed)
DNA: GCATGCCTCCGCATGCTCACAGCACGACTCAGATGG
mixed: CCATCTGAGTCGTGCACGCUAGCGGUGGCUAGC
modifications: DNA strand / DNA-RNA chimera (UAGCGGUGGCUAGC is RNA)
In the case of B1, the binding signal [3] is reported as about 1 fold K2 vs SL3 RNA.

B2: M3 tethered switch (mixed)
DNA: GCTATCCACCGATAGCTCACAGCACGACTCAGATGG
mixed: B1 mixed
modifications: DNA strand / DNA-RNA chimera (UAGCGGUGGCUAGC is RNA)
B2: binds [4].
